± gives the standard deviation of the averaged measurements.
Test system: ATP
Experiment: switch fluorescence ratio, 500 uM ATP over buffer (Cy3 cluster intensity, sum of 5 cycles each) (fold (ratio)); higher = stronger signal-on switching upon ATP binding; sequences stand for … in TCGTCGGCAGCGTCAGATGTGTATAAGAGACAGTTTTTTTTTTTTTTTTTTTTTTTTT…TC
Conditions: aptamer strand: ATP DNA aptamer (quencher-CACCTGGGGGAGTATTGCGGAGGAAGG + anchor), 100 nM annealed; ATP concentration: 500 uM
In short: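 After annealing to 100 nM quencher-labelled ATP aptamer, Cy3-labelled switching-strand clusters on a modified Illumina MiSeq flow-cell were imaged in selection buffer. A second image followed after 15 min with 500 uM ATP at 22 °C, and five such buffer/ATP cycles were done, each separated by NaOH stripping and re-annealing. The fluorescence ratio, averaged per switch-domain sequence, is summed target-cycle over summed buffer-cycle Cy3 intensity per cluster, with clusters outside 100-1000 RFU excluded.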
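Note: ATP exposure 15 min at 22 °C before imaging.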

| Sequence | switch fluorescence ratio |
| --- | --- |
| GAGGGAAAAA | 1.44 ± 0.88 |
| CAGGCTATTG | 0.988 ± 0.023 |
| GATGGTTGGA | 0.9825 ± 0.0056 |
| ATGAGGTTAC | 0.988 ± 0.074 |
| ATTTTTCTAT | 0.987 ± 0.027 |
| TCATTTGGAG | 0.9816 ± 0.0076 |
| GGGAAGTCCG | 0.974 ± 0.03 |
| TATTGGGTGA | 0.99228 ± 0.00097 |
| CATTTGTGGT | 1.02 ± 0.014 |
| AGAATAAAGG | 0.993 ± 0.05 |
| CTCGTTTATC | 1.03 ± 0.032 |
| ATGTAAGGAG | 1.02 ± 0.018 |
| GGTAACGACA | 1.02 ± 0.019 |
| ACTTTCGATT | 1.09 ± 0.13 |
| GGATGGAGGG | 0.965 ± 0.02 |
| GAAATAGGG | 0.983 ± 0.011 |
| ACGTAACGCT | 1.3 ± 0.052 |
| TCGTGTGGGT | 1.01 ± 0.023 |
| GAACATTGGT | 0.998 ± 0.042 |
| GCCCATTGTG | 1.2 ± 0.072 |
| GCGGTCAAAC | 1.06 ± 0.036 |
| AATGGCATTA | 0.984 ± 0.03 |
| GGTGTTGCGG | 0.98 ± 0.038 |

| Sequence | switch fluorescence ratio |
| --- | --- |
| AAAAGTTCTG | 1.01 ± 0.057 |
| AAGGGGCTTT | 1.01 ± 0.025 |
| GCGAAAGGGT | 1 ± 0.015 |
| TCGGGACGTT | 1.02 ± 0.044 |
| TATATGTCGT | 0.99 ± 0.01 |
| GGGGATTGTT | 1 ± 0.033 |
| ACATAGATTA | 1.03 ± 0.016 |
| TCGTTTTGGG | 0.9988 ± 0.0056 |
| GCATGTATAG | 1.015 ± 0.0046 |
| TTTCGAGCGT | 1.01 ± 0.029 |
| AGCATATGAA | 1.02 ± 0.071 |
| CACCATCTTG | 0.987 ± 0.019 |
| TTACGTTCCT | 1.5 ± 0.13 |
| TTAGACATAT | 1.02 ± 0.021 |
| CCTGGGGGCC | 1 ± 0.013 |
| CAGGTACGGG | 1.02 ± 0.025 |
| AGGTAATGCA | 1.012 ± 0.0037 |
| CTCCATGGTT | 1.06 ± 0.024 |
| TTATCTACGT | 1.07 ± 0.035 |
| GGGGGCCCGT | 1.46 ± 0.69 |
| TTATCGGGAC | 1 ± 0.049 |
| CCTTGGGGGA | 1.14 ± 0.055 |
| AAGCGCCCGG | 1.05 ± 0.04 |

| Sequence | switch fluorescence ratio |
| --- | --- |
| CTAGAATAGG | 0.985 ± 0.028 |
| TAGGGGACCG | 0.991 ± 0.017 |
| ATACACGTTA | 1.23 ± 0.013 |
| ATTACTATGG | 1.02 ± 0.02 |
| TCGTTTTGCA | 0.991 ± 0.013 |
| TGAAAATTCA | 1.05 ± 0.077 |
| TAATAGTTAC | 1.01 ± 0.041 |
| TATGAGTAAG | 0.978 ± 0.027 |
| TGAATTAAGT | 1.029 ± 0.003 |
| TTAGTCCTTG | 0.9914 ± 0.0024 |
| TGGGTTCGGG | 0.9503 ± 0.0091 |
| TGATTTTCTG | 1.008 ± 0.002 |
| ATTTTAGTTT | 1 ± 0.016 |
| CTCTTTGCGA | 1.404 ± 0.0035 |
| AGTATCCCTA | 0.998 ± 0.021 |
| CGGGGAGGAG | 1.02 ± 0.056 |
| AGTTAGACAG | 0.9737 ± 0.0062 |
| CGCGGTTGAC | 1.12 ± 0.03 |
| ATGGGACCGT | 1.01 ± 0.056 |
| ACTGAAAAAG | 0.987 ± 0.019 |
| TACGTGGGTA | 1 ± 0.0047 |
| ACTATTGCCA | 1.04 ± 0.017 |
| AACCGTGTGT | 0.994 ± 0.013 |

| Sequence | switch fluorescence ratio |
| --- | --- |
| AGATTAGTAT | 1.02 ± 0.056 |
| CTATAGAAAT | 0.9991 ± 0.0091 |
| CGGTTTCAAG | 0.972 ± 0.042 |
| TGGCCTAGG | 1 ± 0.029 |
| TATATGGAAG | 0.984 ± 0.03 |
| GTGGTCGGGA | 1.09 ± 0.15 |
| ATATGCAGGA | 0.965 ± 0.03 |
| TATGCTGAAT | 1 ± 0.015 |
| AGAAAATTAC | 2.42 ± 2 |
| TGATTGTGCA | 0.989 ± 0.035 |
| AGTTCTGTCG | 1.01 ± 0.09 |
| AAAATGCATC | 1.04 ± 0.038 |
| CTAGACAGTT | 0.997 ± 0.02 |
| ATAGGCTAGT | 1.02 ± 0.025 |
| TCTCAGGGGT | 1.07 ± 0.094 |
| AGTTACCCGA | 1.04 ± 0.011 |
| CGATCCGCGG | 0.942 ± 0.14 |
| GTGGTTACAG | 1.02 ± 0.011 |
| TCGGTAATAT | 1.08 ± 0.16 |
| AACGGCGTGA | 1.08 ± 0.14 |
| ATTACTTATC | 1.02 ± 0.018 |
| ATGATTAGGA | 0.987 ± 0.037 |
| TTGGGAAAAT | 1.01 ± 0.05 |

| Sequence | switch fluorescence ratio |
| --- | --- |
| GGGTAGAGGT | 1.003 ± 0.0062 |
| GTTTTTATAT | 1.03 ± 0.015 |
| AAAGGGAACA | 1.01 ± 0.019 |
| CACGCAAGTG | 1.03 ± 0.018 |
| CGTATGGATA | 0.998 ± 0.028 |
| GTTTGGGCCG | 1.07 ± 0.028 |
| CCGGGCAAGA | 5.5 ± 1.4 |
| CGGAGTGTGC | 1.23 ± 0.047 |
| TCGAAGAAGT | 0.997 ± 0.016 |
| AAAAGTGAAA | 1.14 ± 0.2 |
| GACTAGGAAG | 0.994 ± 0.022 |
| AGGTTTGGGT | 0.998 ± 0.026 |
| TGATCGAAGG | 0.991 ± 0.034 |
| CGTTCAACGA | 1 ± 0.029 |
| CCTGTATTTT | 1.011 ± 0.0077 |
| TAAATAATAT | 1.01 ± 0.019 |
| CGTTATGGGC | 0.979 ± 0.022 |
| AGATTCACTT | 1.01 ± 0.013 |
| TCGTGTCGG | 0.98 ± 0.021 |
| AGGTGTTATC | 0.9933 ± 0.0015 |
| TTATTTTCGA | 0.999 ± 0.021 |
| AGCAGACGGC | 1.03 ± 0.024 |
| CTCTGCAGTG | 3.7 ± 0.5 |

| Sequence | switch fluorescence ratio |
| --- | --- |
| TCTTGGAGCT | 1.01 ± 0.019 |
| TAGTGCCGGG | 1.06 ± 0.07 |
| GTTCTGGGGC | 0.986 ± 0.028 |
| AAAAAGGATT | 1 ± 0.02 |
| TTTTTGTTCC | 1.08 ± 0.1 |
| TTGTGTGTAT | 0.992 ± 0.017 |
| GTTTTGGTAC | 1.01 ± 0.038 |
| GAGCTAGGAT | 0.985 ± 0.018 |
| GGAAATAGTG | 0.966 ± 0.044 |
| GGGGGGCAAT | 1.2 ± 0.099 |
| TTGCTGTTAG | 0.995 ± 0.0074 |
| TGGGTTAATC | 1.01 ± 0.052 |
| AGGCAAAGGC | 1.06 ± 0.036 |
| TATAAAATCT | 1.02 ± 0.082 |
| CTGGGCAGGT | 1 ± 0.016 |
| GTTTAAAATG | 1 ± 0.024 |
| ATTGATGCTT | 0.979 ± 0.018 |
| TTTAAAAGAA | 0.995 ± 0.039 |
| TCGTGGTGGG | 0.994 ± 0.012 |
| TGGCGCCCTT | 1.01 ± 0.012 |
| CTAATTCTG | 0.98 ± 0.018 |
| TTGTTTGTGA | 0.992 ± 0.011 |
| CGGTGAATAC | 2.67 ± 0.064 |

| Sequence | switch fluorescence ratio |
| --- | --- |
| TTTAACGATA | 1.07 ± 0.015 |
| GGATAGTAGG | 0.9956 ± 0.0083 |
| TTACCCTATA | 1.07 ± 0.029 |
| GGGGGTCAAT | 1.02 ± 0.04 |
| TCTACTGGGT | 0.993 ± 0.033 |
| TCCGGATTTT | 1.01 ± 0.016 |
| CTTAGCTAGA | 1.0428 ± 0.00056 |
| AAAGGCATTC | 1.05 ± 0.025 |
| GTATTGGGGC | 0.9807 ± 0.0029 |
| TCGGGCAGTG | 0.99 ± 0.03 |
| GTCGGTATTT | 0.986 ± 0.03 |
| GTGGGATGTT | 1.01 ± 0.015 |
| ACTCTTATTG | 0.988 ± 0.0039 |
| GAGGATATGG | 0.98 ± 0.021 |
| TTTAGTTTCG | 1.02 ± 0.025 |
| TCTATTACGC | 1 ± 0.047 |
| TGGTCGTAGT | 0.994 ± 0.048 |
| ATAAGAATTG | 1.01 ± 0.06 |
| GGTGAGGGGA | 1.01 ± 0.011 |

Reference: the supplement of paper PMC10126150
